# Data taken from IntAct's records for PubMed 19369211.
# B1: Partner and localizer of BRCA2 (Homo sapiens), Q86YC2 (parent)
# chain: MDEPPGKPLSCEEKEKLKEKLAFLKREYSKTLARLQRAQRAEKIKHSIKKTVEEQDCLSQQDLSPQLKHSEPKNKICVYDKLHIKTHLDEETGEKTSITLDVGPESFNPGDGPGGLPIQRTDDTQEHFPHRVSDPSGEQKQKLPSRRKKQQKRTFISQERDCVFGTDSLRLSGKRLKEQEEISSKNPARSPVTEIRTHLLSLKSELPDSPEPVTEINEDSVLIPPTAQPEKGVDTFLRRPNFTRATTVPLQTLSDSGSSQHLEHIPPKGSSELTTHDLKNIRFTSPVSLEAQGKKMTVSTDNLLVNKAISKSGQLPTSSNLEANISCSLNELTYNNLPANENQNLKEQNQTEKSLKSPSDTLDGRNENLQESEILSQPKSLSLEATSPLSAEKHSCTVPEGLLFPAEYYVRTTRSMSNCQRKVAVEAVIQSHLDVKKKGFKNKNKDASKNLNLSNEETDQSEIRMSGTCTGQPSSRTSQKLLSLTKVSSPAGPTEDNDLSRKAVAQAPGRRYTGKRKSACTPASDHCEPLLPTSSLSIVNRSKEEVTSHKYQHEKLFIQVKGKKSRHQKEDSLSWSNSAYLSLDDDAFTAPFHRDGMLSLKQLLSFLSITDFQLPDEDFGPLKLEKVKSCSEKPVEPFESKMFGERHLKEGSCIFPEELSPKRMDTEMEDLEEDLIVLPGKSHPKRPNSQSQHTKTGLSSSILLYTPLNTVAPDDNDRPTTDMCSPAFPILGTTPAFGPQGSYEKASTEVAGRTCCTPQLAHLKDSVCLASDTKQFDSSGSPAKPHTTLQVSGRQGQPTCDCDSVPPGTPPPIESFTFKENQLCRNTCQELHKHSVEQTETAELPASDSINPGNLQLVSELKNPSGSCSVDVSAMFWERAGCKEPCIITACEDVVSLWKALDAWQWEKLYTWHFAEVPVLQIVPVPDVYNLVCVALGNLEIREIRALFCSSDDESEKQVLLKSGNIKAVLGLTKRRLVSSSGTLSDQQVEVMTFAEDGGGKENQFLMPPEETILTFAEVQGMQEALLGTTIMNNIVIWNLKTGQLLKKMHIDDSYQASVCHKAYSEMGLLFIVLSHPCAKESESLRSPVFQLIVINPKTTLSVGVMLYCLPPGQAGRFLEGDVKDHCAAAILTSGTIAIWDLLLGQCTALLPPVSDQHWSFVKWSGTDSHLLAGQKDGNIFVYHYS
# Variants of: B1
# Conditions: with brca1_human BRCA1, P38398
# Sequence of brca1_human BRCA1, P38398 (P38398 whole entry, looked up): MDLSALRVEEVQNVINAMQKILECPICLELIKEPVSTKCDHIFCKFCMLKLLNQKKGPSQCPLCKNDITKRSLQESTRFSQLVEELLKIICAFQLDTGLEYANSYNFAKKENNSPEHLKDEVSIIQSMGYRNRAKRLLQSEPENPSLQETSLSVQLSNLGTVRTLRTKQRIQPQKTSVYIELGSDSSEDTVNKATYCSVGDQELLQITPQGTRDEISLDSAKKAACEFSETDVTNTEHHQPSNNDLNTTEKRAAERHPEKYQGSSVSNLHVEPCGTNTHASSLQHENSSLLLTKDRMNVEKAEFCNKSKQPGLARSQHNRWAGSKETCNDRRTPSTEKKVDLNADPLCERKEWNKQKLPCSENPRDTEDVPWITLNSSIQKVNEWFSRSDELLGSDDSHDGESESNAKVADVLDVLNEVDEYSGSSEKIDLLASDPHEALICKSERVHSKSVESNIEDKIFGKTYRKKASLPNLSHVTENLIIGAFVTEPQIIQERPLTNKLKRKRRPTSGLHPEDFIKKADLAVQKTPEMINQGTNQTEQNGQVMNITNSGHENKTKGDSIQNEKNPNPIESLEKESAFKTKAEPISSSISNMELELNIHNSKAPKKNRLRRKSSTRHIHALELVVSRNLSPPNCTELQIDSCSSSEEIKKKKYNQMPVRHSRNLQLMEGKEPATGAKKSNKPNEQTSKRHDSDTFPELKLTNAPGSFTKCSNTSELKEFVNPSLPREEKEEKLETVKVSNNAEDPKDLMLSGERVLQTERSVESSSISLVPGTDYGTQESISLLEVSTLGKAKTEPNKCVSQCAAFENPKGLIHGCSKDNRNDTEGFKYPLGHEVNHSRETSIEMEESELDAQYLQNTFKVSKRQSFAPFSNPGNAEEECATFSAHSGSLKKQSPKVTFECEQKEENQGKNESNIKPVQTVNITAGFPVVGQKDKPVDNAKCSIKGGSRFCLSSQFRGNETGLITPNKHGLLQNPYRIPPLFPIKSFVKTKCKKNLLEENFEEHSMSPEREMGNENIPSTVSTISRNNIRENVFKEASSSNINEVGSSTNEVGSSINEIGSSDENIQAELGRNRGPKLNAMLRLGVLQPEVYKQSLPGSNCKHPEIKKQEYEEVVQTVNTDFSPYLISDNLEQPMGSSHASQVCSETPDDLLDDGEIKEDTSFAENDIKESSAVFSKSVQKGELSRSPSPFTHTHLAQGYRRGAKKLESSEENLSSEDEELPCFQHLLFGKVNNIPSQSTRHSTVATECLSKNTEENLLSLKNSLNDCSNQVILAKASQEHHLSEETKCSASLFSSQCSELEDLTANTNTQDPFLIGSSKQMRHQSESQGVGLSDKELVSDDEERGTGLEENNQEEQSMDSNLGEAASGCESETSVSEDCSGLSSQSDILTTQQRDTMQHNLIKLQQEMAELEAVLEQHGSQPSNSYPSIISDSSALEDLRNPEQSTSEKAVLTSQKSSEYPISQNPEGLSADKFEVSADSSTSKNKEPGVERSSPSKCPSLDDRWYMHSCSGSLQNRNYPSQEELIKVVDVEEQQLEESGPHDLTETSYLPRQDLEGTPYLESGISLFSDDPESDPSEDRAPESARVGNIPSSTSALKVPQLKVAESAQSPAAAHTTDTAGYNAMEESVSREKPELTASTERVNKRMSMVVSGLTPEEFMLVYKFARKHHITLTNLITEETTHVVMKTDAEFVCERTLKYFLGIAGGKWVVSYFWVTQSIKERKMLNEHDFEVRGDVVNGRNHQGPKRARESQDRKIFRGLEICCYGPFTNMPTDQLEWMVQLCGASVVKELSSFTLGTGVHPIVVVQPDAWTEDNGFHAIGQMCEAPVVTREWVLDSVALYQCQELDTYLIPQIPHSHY
row,effect of a mutation on the interaction,Variant
1,disrupting interaction,L21A
2,disrupting interaction,Y28A
